{"source": "the RNAGym collection of RNA variant scans (doi:10.1093/nar/gkz1192)", "parents": {"B1": {"name": "CPEB3 Ribozyme (parent)", "chain": "UAACAGGGGGCCACAGCAGAAGCGUUCACGUCGCAGCCCCUGUCAGAUUCUGGUGAAUCUGCGAAUUCUGCUGUAUAUCUC"}}, "data": [{"variants_of": "B1", "test": "self-cleavage, relative activity (ratio to wild type); higher = more cleavage; in vitro, sequencing", "in_short": "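Libraries of CPEB3 self-cleaving ribozyme mutants came from rounds of error-prone PCR and carried barcodes, which DNA sequencing matched to variants. In vitro transcription used T7 RNA polymerase at 37°C for 5 hours, with a further 15 min in DNase I before EDTA stopped the reaction; the ribozymes cleaved during both steps. The RNA was reverse transcribed with template switching and sequenced on Illumina. Relative activity is the cleaved/total read fraction of a variant divided by that of the unmutated ribozyme, averaged over three batches with at least 5 reads.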", "values": [{"variant": "U78C U80C", "self-cleavage": 0.82}, {"variant": "U78C U80G", "self-cleavage": 1.15}, {"variant": "U78C U80A", "self-cleavage": 1.2}, {"variant": "U74C U76C", "self-cleavage": 1.2}, {"variant": "U74C U76A", "self-cleavage": 1.3}, {"variant": "U80G C81U", "self-cleavage": 1.39}, {"variant": "U78C C81A", "self-cleavage": 1.21}, {"variant": "U78C C81G", "self-cleavage": 1.25}, {"variant": "U78C C81U", "self-cleavage": 1.15}, {"variant": "U72G U74C", "self-cleavage": 1.04}, {"variant": "U72G A77U", "self-cleavage": 0.71}, {"variant": "U72G A77G", "self-cleavage": 1}, {"variant": "C79A", "self-cleavage": 1.19}, {"variant": "C79G", "self-cleavage": 1.13}, {"variant": "C79U", "self-cleavage": 1.17}, {"variant": "U74A A75G", "self-cleavage": 1.31}, {"variant": "U74A A75U", "self-cleavage": 1.29}, {"variant": "U74A A75C", "self-cleavage": 1.44}, {"variant": "G73A U80A", "self-cleavage": 1.25}, {"variant": "G73A U80C", "self-cleavage": 1.36}, {"variant": "U74G A75U", "self-cleavage": 1.29}, {"variant": "U74G A75G", "self-cleavage": 1.26}, {"variant": "G73C", "self-cleavage": 1.25}, {"variant": "G73U", "self-cleavage": 1.28}, {"variant": "G73A", "self-cleavage": 1.27}, {"variant": "G73A U76C", "self-cleavage": 1.26}, {"variant": "U76C C81A", "self-cleavage": 1.24}, {"variant": "C81G", "self-cleavage": 1.14}, {"variant": "C81U", "self-cleavage": 1.18}, {"variant": "C81A", "self-cleavage": 1.05}, {"variant": "U78G", "self-cleavage": 1.1}, {"variant": "U78A", "self-cleavage": 1.12}, {"variant": "U78C", "self-cleavage": 1.02}, {"variant": "U74C A77G", "self-cleavage": 1.32}, {"variant": "U74C A77U", "self-cleavage": 1.26}, {"variant": "A75U U78C", "self-cleavage": 1.15}, {"variant": "A75U U78A", "self-cleavage": 1.11}, {"variant": "A75G U76C", "self-cleavage": 0.94}, {"variant": "A75G U76G", "self-cleavage": 0.43}, {"variant": "A75G U76A", "self-cleavage": 1.05}, {"variant": "U76A C79A", "self-cleavage": 1.2}, {"variant": "A75G U80A", "self-cleavage": 1.08}, {"variant": "A75G U80C", "self-cleavage": 0.65}, {"variant": "A75G U80G", "self-cleavage": 1.02}, {"variant": "G73A A77G", "self-cleavage": 1.31}, {"variant": "U72C U78G", "self-cleavage": 1.16}, {"variant": "U72C U78A", "self-cleavage": 1.2}, {"variant": "U72C U78C", "self-cleavage": 1.15}, {"variant": "U76A U78G", "self-cleavage": 1.37}, {"variant": "U76A U78A", "self-cleavage": 1.09}, {"variant": "U76A U78C", "self-cleavage": 1.1}, {"variant": "C79U U80A", "self-cleavage": 1.24}, {"variant": "C79A U80C", "self-cleavage": 1.23}, {"variant": "G73U U76C", "self-cleavage": 1.21}, {"variant": "A75G A77G", "self-cleavage": 0.57}, {"variant": "A75G A77U", "self-cleavage": 1.05}, {"variant": "U74A U78A", "self-cleavage": 1.18}, {"variant": "U74A U78C", "self-cleavage": 1.23}, {"variant": "A77U U80A", "self-cleavage": 1.18}, {"variant": "A77U U80C", "self-cleavage": 1.18}, {"variant": "A77U U80G", "self-cleavage": 1.26}, {"variant": "U72C U80A", "self-cleavage": 1.24}, {"variant": "U72C U80G", "self-cleavage": 1.23}, {"variant": "U72C U80C", "self-cleavage": 1.24}, {"variant": "G73U C79U", "self-cleavage": 1.32}, {"variant": "U72G U78A", "self-cleavage": 1.13}, {"variant": "U72G U78G", "self-cleavage": 1}, {"variant": "U72G U78C", "self-cleavage": 1.01}, {"variant": "A75C U78C", "self-cleavage": 1.15}, {"variant": "U74C C81U", "self-cleavage": 1.23}, {"variant": "U74C C81A", "self-cleavage": 1.26}, {"variant": "C79G U80C", "self-cleavage": 0.27}, {"variant": "U72C U76A", "self-cleavage": 1.23}, {"variant": "U72C U76G", "self-cleavage": 1.23}, {"variant": "U72C U76C", "self-cleavage": 1.16}, {"variant": "U74C C79A", "self-cleavage": 1.31}, {"variant": "U74C C79G", "self-cleavage": 1.45}, {"variant": "G73A U78C", "self-cleavage": 1.32}, {"variant": "A77C", "self-cleavage": 0.98}, {"variant": "A77U", "self-cleavage": 1.11}, {"variant": "A77G", "self-cleavage": 1.06}, {"variant": "U74C U78C", "self-cleavage": 1.3}, {"variant": "U74C U78G", "self-cleavage": 1.17}, {"variant": "U74C U78A", "self-cleavage": 1.29}, {"variant": "A77U C81A", "self-cleavage": 1.31}, {"variant": "A77U C79A", "self-cleavage": 1.26}, {"variant": "U80C C81U", "self-cleavage": 1.01}, {"variant": "U80C C81A", "self-cleavage": 1.23}, {"variant": "A75G C79U", "self-cleavage": 1.18}, {"variant": "G73C U78G", "self-cleavage": 1.23}, {"variant": "U76G A77U", "self-cleavage": 0.75}, {"variant": "U76C U78A", "self-cleavage": 1.19}, {"variant": "U76C U78C", "self-cleavage": 1.01}, {"variant": "A75U", "self-cleavage": 1.15}, {"variant": "A75C", "self-cleavage": 1.2}, {"variant": "A75G", "self-cleavage": 1.01}, {"variant": "A77C U80A", "self-cleavage": 1.05}, {"variant": "U72G U80C", "self-cleavage": 1.19}, {"variant": "U78A C79U", "self-cleavage": 1.29}, {"variant": "U76G C81A", "self-cleavage": 1.14}, {"variant": "U72C G73A", "self-cleavage": 1.25}, {"variant": "U72C G73U", "self-cleavage": 1.48}, {"variant": "A75G C81A", "self-cleavage": 1.04}, {"variant": "A75G C81U", "self-cleavage": 1.18}, {"variant": "U72G C79U", "self-cleavage": 1.21}, {"variant": "G73U U80C", "self-cleavage": 1.28}, {"variant": "U76A U80C", "self-cleavage": 1.23}, {"variant": "U76A U80A", "self-cleavage": 1.17}, {"variant": "U72G A75G", "self-cleavage": 1.2}, {"variant": "U74G U78C", "self-cleavage": 1.26}, {"variant": "U74G U78A", "self-cleavage": 1.26}, {"variant": "U76C C79G", "self-cleavage": 1.22}, {"variant": "U72G", "self-cleavage": 0.98}, {"variant": "U76C", "self-cleavage": 1.1}, {"variant": "U76A", "self-cleavage": 1.14}, {"variant": "U76G", "self-cleavage": 0.9}, {"variant": "A75U U76C", "self-cleavage": 1.29}, {"variant": "U78A C81U", "self-cleavage": 0.8}, {"variant": "U76C U80A", "self-cleavage": 1.26}, {"variant": "U76C U80C", "self-cleavage": 1.13}, {"variant": "U76C U80G", "self-cleavage": 1.24}, {"variant": "U76A A77U", "self-cleavage": 1.01}, {"variant": "U76A A77G", "self-cleavage": 1.01}, {"variant": "U74A", "self-cleavage": 1.25}, {"variant": "U74G", "self-cleavage": 1.24}, {"variant": "U74C", "self-cleavage": 1.23}, {"variant": "A75G U78G", "self-cleavage": 0.62}, {"variant": "A75G U78A", "self-cleavage": 1.3}, {"variant": "A75G U78C", "self-cleavage": 0.67}, {"variant": "U72C C81U", "self-cleavage": 1.23}, {"variant": "U72C C81A", "self-cleavage": 1.05}, {"variant": "A75U U80A", "self-cleavage": 1.25}, {"variant": "A75U U80G", "self-cleavage": 1.26}, {"variant": "A75U U80C", "self-cleavage": 1.1}, {"variant": "A77G U80G", "self-cleavage": 1.21}, {"variant": "A77G U80C", "self-cleavage": 1.12}, {"variant": "A77G U80A", "self-cleavage": 1.18}, {"variant": "U78G U80C", "self-cleavage": 0.94}, {"variant": "U80A", "self-cleavage": 1.13}, {"variant": "U80G", "self-cleavage": 1.18}, {"variant": "U80C", "self-cleavage": 1.08}, {"variant": "A77U U78C", "self-cleavage": 1.05}, {"variant": "A77U U78A", "self-cleavage": 0.9}, {"variant": "A75C U80C", "self-cleavage": 1.18}, {"variant": "A75C U76G", "self-cleavage": 1.25}, {"variant": "A77G U78A", "self-cleavage": 1.17}, {"variant": "A77G U78C", "self-cleavage": 0.82}, {"variant": "A77G U78G", "self-cleavage": 0.9}, {"variant": "U74C A75G", "self-cleavage": 1.25}, {"variant": "U74C A75U", "self-cleavage": 1.26}, {"variant": "U78A U80A", "self-cleavage": 1.23}, {"variant": "U78A U80G", "self-cleavage": 1.29}, {"variant": "U78A U80C", "self-cleavage": 1.07}, {"variant": "U74A U76C", "self-cleavage": 1.34}, {"variant": "U78C C79U", "self-cleavage": 0.84}, {"variant": "U78C C79G", "self-cleavage": 1.18}, {"variant": "G73C U80C", "self-cleavage": 1.29}, {"variant": "U74G U76C", "self-cleavage": 1.16}, {"variant": "U72C U74G", "self-cleavage": 1.25}, {"variant": "U72C U74A", "self-cleavage": 1.24}, {"variant": "U72C U74C", "self-cleavage": 1.22}, {"variant": "U80A C81U", "self-cleavage": 1.24}, {"variant": "U76C A77U", "self-cleavage": 1.07}, {"variant": "U76C A77G", "self-cleavage": 1.07}, {"variant": "U74C U80C", "self-cleavage": 1.24}, {"variant": "U74C U80A", "self-cleavage": 1.28}, {"variant": "U74A A77G", "self-cleavage": 1.26}, {"variant": "A77G C81A", "self-cleavage": 1.2}, {"variant": "U72C C79G", "self-cleavage": 1.05}, {"variant": "U72C C79U", "self-cleavage": 1.16}, {"variant": "A75U A77G", "self-cleavage": 1.18}, {"variant": "A75U A77U", "self-cleavage": 1.2}, {"variant": "U72G G73A", "self-cleavage": 1.3}, {"variant": "U74A U80C", "self-cleavage": 1.24}, {"variant": "U74A U80A", "self-cleavage": 1.26}, {"variant": "U72G U76A", "self-cleavage": 0.54}, {"variant": "U72G U76C", "self-cleavage": 0.97}, {"variant": "G73A A75G", "self-cleavage": 1.19}, {"variant": "G73A U74A", "self-cleavage": 1.25}]}]}
